Assay in all cases: plate-based fluorescence binding assay
Assay [1] has as its target T1, TrkB (Rattus norvegicus, UniProt Q63604).
T1 chain: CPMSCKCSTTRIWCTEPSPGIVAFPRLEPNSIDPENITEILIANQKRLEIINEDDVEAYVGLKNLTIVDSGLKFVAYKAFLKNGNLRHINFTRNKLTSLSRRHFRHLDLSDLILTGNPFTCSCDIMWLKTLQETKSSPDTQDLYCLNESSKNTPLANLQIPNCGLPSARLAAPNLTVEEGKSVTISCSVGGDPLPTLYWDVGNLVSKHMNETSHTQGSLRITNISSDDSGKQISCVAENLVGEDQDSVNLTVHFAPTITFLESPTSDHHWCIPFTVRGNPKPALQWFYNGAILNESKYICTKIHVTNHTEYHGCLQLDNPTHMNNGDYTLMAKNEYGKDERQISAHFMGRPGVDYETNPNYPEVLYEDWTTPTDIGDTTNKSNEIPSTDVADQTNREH

Assay [2] has as its target T1, TrkB.
Assay [3] deals with T1, TrkB.
The target in assay [4] is T1, TrkB.

Where two headings read alike, the source gives them in different places.

This is an account of results in publication PMC3161730 (2012).

As a reminder, the Kd is the concentration at which binding is half-saturated. A higher Kd goes with a looser complex.

B1: BDNF (protein)
chain: HSDPARRGELSVCDSISEWVTAADKKTAVDMSGGTVTVLEKVPVSKGQLKQYFYETKCNPMGYTKEGCRGIDKRHWNSQCRTTQSYVRALTMDSKKRIGWRFIRIDTSCVCTLTIKRGR
Take B1: the Kd was found to be 0.53 nM in the assay with TrkB [1], 0.11 pM with TrkB [2], 3.37 nM in the assay with TrkB [3] and 1.79 pM in the assay with TrkB [4].
